Measurements reported in patent publication US20110230416A1.

What was measured:
[1] = molecular target: hLDLR of non-genetically modified human cells (human fibroblasts, HUVEC) (human) (UniProt P01130); test: FACS on HUVEC, competition; displaced: bacterial viruses expressing SEQ ID NO: 11
[2] = molecular target: hLDLR of non-genetically modified human cells (human fibroblasts, HUVEC) (human) (UniProt P01130); test: FACS on HUVEC, competition; displaced: bacterial viruses expressing SEQ ID NO: 21

LDL, natural ligand of hLDLR, sequence (P04114 28-4563): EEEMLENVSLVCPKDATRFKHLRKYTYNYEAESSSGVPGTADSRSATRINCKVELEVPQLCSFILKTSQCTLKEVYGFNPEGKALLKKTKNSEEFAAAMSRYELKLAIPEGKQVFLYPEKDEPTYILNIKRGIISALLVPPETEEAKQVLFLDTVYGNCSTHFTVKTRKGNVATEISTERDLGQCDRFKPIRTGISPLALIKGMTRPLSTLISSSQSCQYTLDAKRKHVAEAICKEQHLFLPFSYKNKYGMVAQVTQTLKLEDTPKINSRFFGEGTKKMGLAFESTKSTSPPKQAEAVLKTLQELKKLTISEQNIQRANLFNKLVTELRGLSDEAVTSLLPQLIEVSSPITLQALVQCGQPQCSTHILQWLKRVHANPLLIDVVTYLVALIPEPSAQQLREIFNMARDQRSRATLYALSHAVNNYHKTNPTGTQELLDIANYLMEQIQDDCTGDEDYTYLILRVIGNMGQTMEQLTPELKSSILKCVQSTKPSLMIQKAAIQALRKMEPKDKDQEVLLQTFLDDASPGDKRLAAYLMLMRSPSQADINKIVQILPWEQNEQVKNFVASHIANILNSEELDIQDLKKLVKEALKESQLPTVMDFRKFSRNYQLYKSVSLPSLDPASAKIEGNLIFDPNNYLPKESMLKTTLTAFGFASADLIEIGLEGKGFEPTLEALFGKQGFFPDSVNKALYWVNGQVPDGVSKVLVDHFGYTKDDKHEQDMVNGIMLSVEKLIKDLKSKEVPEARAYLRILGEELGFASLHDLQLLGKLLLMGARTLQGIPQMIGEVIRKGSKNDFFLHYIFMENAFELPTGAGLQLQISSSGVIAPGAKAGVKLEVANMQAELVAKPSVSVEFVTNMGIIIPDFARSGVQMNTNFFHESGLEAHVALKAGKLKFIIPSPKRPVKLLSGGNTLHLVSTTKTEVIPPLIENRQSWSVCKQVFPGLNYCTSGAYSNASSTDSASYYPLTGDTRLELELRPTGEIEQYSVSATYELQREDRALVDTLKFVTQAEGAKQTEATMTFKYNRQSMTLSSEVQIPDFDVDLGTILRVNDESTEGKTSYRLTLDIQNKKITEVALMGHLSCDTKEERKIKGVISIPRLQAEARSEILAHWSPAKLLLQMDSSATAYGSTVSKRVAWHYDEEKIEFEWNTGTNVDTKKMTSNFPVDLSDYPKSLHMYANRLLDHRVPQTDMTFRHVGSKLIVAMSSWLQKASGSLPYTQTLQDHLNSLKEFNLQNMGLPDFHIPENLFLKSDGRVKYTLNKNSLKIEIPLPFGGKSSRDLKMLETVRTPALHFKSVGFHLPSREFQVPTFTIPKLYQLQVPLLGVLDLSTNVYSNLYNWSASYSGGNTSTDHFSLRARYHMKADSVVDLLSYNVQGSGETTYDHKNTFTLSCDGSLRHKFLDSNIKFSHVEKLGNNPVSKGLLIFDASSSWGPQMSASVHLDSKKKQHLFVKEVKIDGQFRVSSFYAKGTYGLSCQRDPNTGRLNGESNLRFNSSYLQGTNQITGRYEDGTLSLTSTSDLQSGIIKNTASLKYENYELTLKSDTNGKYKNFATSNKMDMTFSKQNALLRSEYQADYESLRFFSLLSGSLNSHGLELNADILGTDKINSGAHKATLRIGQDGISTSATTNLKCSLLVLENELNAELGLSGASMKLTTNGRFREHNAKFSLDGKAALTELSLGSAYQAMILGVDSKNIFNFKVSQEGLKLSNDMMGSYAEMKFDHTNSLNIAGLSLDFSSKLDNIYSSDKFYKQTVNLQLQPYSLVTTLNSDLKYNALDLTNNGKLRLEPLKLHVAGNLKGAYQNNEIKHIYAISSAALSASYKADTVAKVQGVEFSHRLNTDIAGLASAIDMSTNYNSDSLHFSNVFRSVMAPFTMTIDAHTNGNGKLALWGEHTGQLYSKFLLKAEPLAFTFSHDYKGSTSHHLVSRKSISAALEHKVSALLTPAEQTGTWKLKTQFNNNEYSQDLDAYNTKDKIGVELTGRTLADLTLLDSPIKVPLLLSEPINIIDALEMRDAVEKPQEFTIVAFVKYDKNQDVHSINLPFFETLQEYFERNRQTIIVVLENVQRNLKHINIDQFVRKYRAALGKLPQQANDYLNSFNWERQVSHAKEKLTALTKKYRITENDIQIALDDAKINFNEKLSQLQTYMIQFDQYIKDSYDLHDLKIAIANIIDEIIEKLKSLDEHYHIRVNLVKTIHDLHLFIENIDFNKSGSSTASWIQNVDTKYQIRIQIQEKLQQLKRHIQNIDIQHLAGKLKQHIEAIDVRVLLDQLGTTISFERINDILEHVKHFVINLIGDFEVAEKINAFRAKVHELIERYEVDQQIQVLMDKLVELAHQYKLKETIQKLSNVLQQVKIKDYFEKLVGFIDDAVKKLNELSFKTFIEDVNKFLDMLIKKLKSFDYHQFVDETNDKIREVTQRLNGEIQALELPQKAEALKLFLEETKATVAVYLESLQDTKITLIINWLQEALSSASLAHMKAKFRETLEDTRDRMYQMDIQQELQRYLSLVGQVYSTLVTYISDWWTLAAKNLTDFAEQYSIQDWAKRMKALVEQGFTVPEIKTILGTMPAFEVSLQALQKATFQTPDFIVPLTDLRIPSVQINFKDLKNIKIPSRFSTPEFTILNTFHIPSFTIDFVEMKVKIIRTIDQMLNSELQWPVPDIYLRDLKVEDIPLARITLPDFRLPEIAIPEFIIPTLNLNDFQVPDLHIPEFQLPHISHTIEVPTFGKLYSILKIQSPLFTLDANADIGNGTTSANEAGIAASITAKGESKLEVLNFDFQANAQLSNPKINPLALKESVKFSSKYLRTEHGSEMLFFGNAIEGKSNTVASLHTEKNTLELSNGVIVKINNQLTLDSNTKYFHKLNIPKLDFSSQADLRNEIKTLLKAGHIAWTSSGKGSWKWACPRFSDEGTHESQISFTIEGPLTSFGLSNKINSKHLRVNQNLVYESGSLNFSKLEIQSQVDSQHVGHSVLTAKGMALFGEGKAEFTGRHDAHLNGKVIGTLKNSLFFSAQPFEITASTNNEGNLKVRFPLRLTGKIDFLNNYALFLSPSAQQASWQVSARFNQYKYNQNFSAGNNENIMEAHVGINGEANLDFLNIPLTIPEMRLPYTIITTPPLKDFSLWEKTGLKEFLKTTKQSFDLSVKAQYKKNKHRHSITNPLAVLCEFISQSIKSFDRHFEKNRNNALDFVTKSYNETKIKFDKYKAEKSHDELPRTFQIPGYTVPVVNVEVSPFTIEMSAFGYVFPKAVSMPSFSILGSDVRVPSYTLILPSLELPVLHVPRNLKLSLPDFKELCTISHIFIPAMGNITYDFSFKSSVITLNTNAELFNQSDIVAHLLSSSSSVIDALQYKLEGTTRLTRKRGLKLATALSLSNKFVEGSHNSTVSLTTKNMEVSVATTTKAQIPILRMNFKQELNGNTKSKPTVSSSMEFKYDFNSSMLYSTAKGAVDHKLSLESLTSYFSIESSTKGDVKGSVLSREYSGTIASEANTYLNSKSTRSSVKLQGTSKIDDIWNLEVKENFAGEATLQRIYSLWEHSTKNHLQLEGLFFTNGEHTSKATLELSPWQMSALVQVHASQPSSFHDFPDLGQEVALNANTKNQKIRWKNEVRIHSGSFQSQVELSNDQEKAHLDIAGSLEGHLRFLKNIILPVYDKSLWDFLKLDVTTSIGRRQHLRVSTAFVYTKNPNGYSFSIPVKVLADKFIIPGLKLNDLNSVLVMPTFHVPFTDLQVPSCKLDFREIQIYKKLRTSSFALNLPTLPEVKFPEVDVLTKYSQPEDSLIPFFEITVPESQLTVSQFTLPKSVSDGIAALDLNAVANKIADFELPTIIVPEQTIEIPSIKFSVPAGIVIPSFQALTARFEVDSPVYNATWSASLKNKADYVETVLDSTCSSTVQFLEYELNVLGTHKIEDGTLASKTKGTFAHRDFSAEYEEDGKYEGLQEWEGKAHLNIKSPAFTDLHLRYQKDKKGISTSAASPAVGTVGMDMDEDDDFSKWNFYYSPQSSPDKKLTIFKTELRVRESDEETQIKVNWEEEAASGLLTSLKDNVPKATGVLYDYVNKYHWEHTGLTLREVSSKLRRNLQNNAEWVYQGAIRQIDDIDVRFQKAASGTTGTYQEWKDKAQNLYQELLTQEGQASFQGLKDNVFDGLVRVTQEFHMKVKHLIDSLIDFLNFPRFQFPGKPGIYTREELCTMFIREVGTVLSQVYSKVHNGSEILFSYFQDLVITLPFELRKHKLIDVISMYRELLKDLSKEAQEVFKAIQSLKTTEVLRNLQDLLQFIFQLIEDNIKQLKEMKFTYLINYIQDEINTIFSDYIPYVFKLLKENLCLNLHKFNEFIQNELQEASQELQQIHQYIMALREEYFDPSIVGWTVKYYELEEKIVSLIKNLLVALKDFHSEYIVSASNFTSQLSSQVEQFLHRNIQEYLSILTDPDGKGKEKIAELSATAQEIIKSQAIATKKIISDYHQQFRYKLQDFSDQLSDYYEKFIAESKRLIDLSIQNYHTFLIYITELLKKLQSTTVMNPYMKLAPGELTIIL

LDL, natural ligand of hLDLR
loss of signal in Q2 on adding LDL [1]: 17%
loss of signal in Q2 on adding LDL [2]: 85%
